Laboratory results taken from patent US20250388676A1.

What was measured:
[1] = target: HVEM (analyte in solution) (UniProt Q92956); assay: SPR (Biacore), construct captured on CM5 chip via anti-human Fc or Fab, antigen as analyte, 25 C
[2] = target: human HVEM on Jurkat NF-kB reporter cells (human) (UniProt Q92956); assay: cell-based or functional assay
[3] = target: human LTBR on Jurkat NF-kB reporter cells (human) (UniProt P36941); assay: cell-based or functional assay
[4] = target: CD27 (analyte in solution) (UniProt P26842); assay: SPR (Biacore), construct captured on CM5 chip via anti-human Fc or Fab, antigen as analyte, 25 C
[5] = target: human CD27 on reporter cells (human) (UniProt P26842); assay: cell-based or functional assay
[6] = target: OX40 (analyte in solution) (UniProt P43489); assay: SPR (Biacore), construct captured on CM5 chip via anti-human Fc or Fab, antigen as analyte, 25 C
[7] = target: human OX40 on Jurkat NF-kB-Luc2 OX40 reporter cells (human) (UniProt P43489); assay: cell-based or functional assay
[8] = target: cynomolgus GITR (cynomolgus monkey); assay: flow cytometry on NFkB-NlucP/HEK293 cells expressing cyno GITR, detection with anti-human IgG Fc F(ab')2 [panel B]
[9] = target: activated cyno T cells; assay: flow cytometry on activated primary cynomolgus T cells, detection with anti-human IgG Fc F(ab')2 [panel B]
[10] = target: activated human T cells; assay: flow cytometry on activated primary human T cells, detection with anti-human IgG Fc F(ab')2 [panel A]

OX40 (analyte in solution), sequence (P43489 29-214 limits assumed): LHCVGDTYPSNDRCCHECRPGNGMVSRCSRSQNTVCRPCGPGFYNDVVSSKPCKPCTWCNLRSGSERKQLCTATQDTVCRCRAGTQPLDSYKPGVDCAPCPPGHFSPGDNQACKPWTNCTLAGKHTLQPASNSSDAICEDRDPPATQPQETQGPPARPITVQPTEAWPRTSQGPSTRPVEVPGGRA
HVEM (analyte in solution), sequence (Q92956 39-202 limits assumed): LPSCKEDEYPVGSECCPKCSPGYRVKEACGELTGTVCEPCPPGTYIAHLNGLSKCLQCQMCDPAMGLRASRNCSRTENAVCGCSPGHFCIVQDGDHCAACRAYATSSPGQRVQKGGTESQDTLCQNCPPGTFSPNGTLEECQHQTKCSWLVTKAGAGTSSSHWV
CD27 (analyte in solution), sequence (P26842 20-191 limits assumed): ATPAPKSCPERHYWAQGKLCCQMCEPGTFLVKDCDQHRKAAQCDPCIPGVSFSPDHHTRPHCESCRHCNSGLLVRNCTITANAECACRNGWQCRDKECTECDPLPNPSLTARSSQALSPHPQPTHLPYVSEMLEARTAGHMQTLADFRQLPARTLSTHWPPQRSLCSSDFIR
human OX40 on Jurkat NF-kB-Luc2 OX40 reporter cells (human), sequence (P43489 29-277): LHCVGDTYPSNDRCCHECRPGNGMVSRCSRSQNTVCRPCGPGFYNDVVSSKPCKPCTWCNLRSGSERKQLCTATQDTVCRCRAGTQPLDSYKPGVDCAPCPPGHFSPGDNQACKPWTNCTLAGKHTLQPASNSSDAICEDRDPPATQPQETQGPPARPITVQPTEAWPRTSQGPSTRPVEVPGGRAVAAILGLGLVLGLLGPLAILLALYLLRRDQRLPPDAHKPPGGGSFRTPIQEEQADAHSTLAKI
human HVEM on Jurkat NF-kB reporter cells (human), sequence (Q92956 39-283): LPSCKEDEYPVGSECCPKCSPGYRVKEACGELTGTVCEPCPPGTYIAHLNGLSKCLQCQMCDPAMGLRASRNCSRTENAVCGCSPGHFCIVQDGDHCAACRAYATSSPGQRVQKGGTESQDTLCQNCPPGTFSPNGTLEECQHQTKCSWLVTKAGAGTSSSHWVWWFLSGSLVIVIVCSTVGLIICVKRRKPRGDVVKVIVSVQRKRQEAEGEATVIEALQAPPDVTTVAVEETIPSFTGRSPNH
human CD27 on reporter cells (human), sequence (P26842 20-260): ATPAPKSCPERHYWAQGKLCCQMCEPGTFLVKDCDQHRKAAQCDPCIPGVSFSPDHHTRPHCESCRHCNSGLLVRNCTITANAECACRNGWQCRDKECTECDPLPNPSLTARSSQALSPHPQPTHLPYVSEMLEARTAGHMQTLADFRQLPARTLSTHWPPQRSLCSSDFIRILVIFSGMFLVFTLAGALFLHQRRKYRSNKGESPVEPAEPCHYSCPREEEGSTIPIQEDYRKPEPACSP
human LTBR on Jurkat NF-kB reporter cells (human), sequence (P36941 31-435): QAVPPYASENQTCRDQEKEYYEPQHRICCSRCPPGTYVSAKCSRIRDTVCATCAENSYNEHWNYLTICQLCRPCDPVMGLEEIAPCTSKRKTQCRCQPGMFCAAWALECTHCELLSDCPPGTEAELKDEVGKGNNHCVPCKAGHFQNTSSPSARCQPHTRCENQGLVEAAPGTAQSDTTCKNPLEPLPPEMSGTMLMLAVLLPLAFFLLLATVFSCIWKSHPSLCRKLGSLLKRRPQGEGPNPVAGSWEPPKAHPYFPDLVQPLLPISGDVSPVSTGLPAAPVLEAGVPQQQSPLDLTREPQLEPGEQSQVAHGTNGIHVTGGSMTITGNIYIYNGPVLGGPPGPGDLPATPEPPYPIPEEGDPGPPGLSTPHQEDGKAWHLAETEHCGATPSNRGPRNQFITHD

B1: LIGHT monospecific (protein, part only; not given: carrier Fab or Fc and linkers, not shown: another chain or arm of the molecule; a dimerising Fc or GST; large carriers; small tags and cut ends)
chain: LIQERRSHEVNPAAHLTGANSSLTGSGGPLLWETQLGLAFLRGLSYHDGALVVTKAGYYYIYSKVQLGGVGCPLGLASTITHGLYKRTPRYPEELELLVSQQSPCGRATSSSRVWWDSSFLGGVVHLEAGEKVVVRVLDERLVRLRDGTRSYFGAFMVGGGGSGGGGSLIQERRSHEVNPAAHLTGANSSLTGSGGPLLWETQLGLAFLRGLSYHDGALVVTKAGYYYIYSKVQLGGVGCPLGLASTITHGLYKRTPRYPEELELLVSQQSPCGRATSSSRVWWDSSFLGGVVHLEAGEKVVVRVLDERLVRLRDGTRSYFGAFMVGGGGSGGGGSLIQERRSHEVNPAAHLTGANSSLTGSGGPLLWETQLGLAFLRGLSYHDGALVVTKAGYYYIYSKVQLGGVGCPLGLASTITHGLYKRTPRYPEELELLVSQQSPCGRATSSSRVWWDSSFLGGVVHLEAGEKVVVRVLDERLVRLRDGTRSYFGAFMV
In the case of B1, the Average binding Relative (RU) [1] is reported as 1.69 RU, the HVEM reporter EC50 [2] is reported as 0.05 nM and the LTBR reporter EC50 [3] is reported as 0.0057 nM.

B2: CD70 monospecific (protein, part only; not given: carrier Fab or Fc and linkers, not shown: another chain or arm of the molecule; a dimerising Fc or GST; large carriers; small tags and cut ends)
chain: GWDVAELQLNHTGPQQDPRLYWQGGPALGRSFLHGPELDKGQLRIHRDGIYMVHIQVTLAICSSTTASRHHPTTLAVGICSPASRSISLLRLSFHQGCTIASQRLTPLARGDTLCTNLTGTLLPSRNTDETFFGVQWVRPGGGGSGGGGSGWDVAELQLNHTGPQQDPRLYWQGGPALGRSFLHGPELDKGQLRIHRDGIYMVHIQVTLAICSSTTASRHHPTTLAVGICSPASRSISLLRLSFHQGCTIASQRLTPLARGDTLCTNLTGTLLPSRNTDETFFGVQWVRPGGGGSGGGGSGWDVAELQLNHTGPQQDPRLYWQGGPALGRSFLHGPELDKGQLRIHRDGIYMVHIQVTLAICSSTTASRHHPTTLAVGICSPASRSISLLRLSFHQGCTIASQRLTPLARGDTLCTNLTGTLLPSRNTDETFFGVQWVRP
Work on B2 yielded an Average binding Relative (RU) [4] of 32.7 RU and a CD27 reporter EC50 [5] of 1.9 nM.

B3: OX40L monospecific (protein, part only; not given: carrier Fab or Fc and linkers, not shown: another chain or arm of the molecule; a dimerising Fc or GST; large carriers; small tags and cut ends)
chain: QVSHRYPRIQSIKVQFTEYKKEKGFILTSQKEDEIMKVQDNSVIINCDGFYLISLKGYFSQEVDISLHYQKDEEPLFQLKKVRSVNSLMVASLTYKDKVYLNVTTDNTSLDDFHVNGGELILIHQNPGEFCVLGGGGSGGGGSQVSHRYPRIQSIKVQFTEYKKEKGFILTSQKEDEIMKVQDNSVIINCDGFYLISLKGYFSQEVDISLHYQKDEEPLFQLKKVRSVNSLMVASLTYKDKVYLNVTTDNTSLDDFHVNGGELILIHQNPGEFCVLGGGGSGGGGSQVSHRYPRIQSIKVQFTEYKKEKGFILTSQKEDEIMKVQDNSVIINCDGFYLISLKGYFSQEVDISLHYQKDEEPLFQLKKVRSVNSLMVASLTYKDKVYLNVTTDNTSLDDFHVNGGELILIHQNPGEFCVL
In the case of B3, the Average binding Relative (RU) [6] is reported as 23.7 RU and the OX40 reporter EC50 [7] is reported as 0.74 nM.

B4: GITRL/irrelevant control (antibody, part only; not given: irrelevant anti-TNP binding site, not shown: another chain or arm of the molecule; small tags and cut ends)
chain: QLETAKEPCMAKFGPLPSKWQMASSEPPCVNKVSDWKLEILQNGLYLIYGQVAPNANYNDVAPFEVRLYKNKDMIQTLTNKSKIQNVGGTYELHVGDTIDLIFNSEHQVLKNNTYWGIILLANPQFISGGGGSGGGGSQLETAKEPCMAKFGPLPSKWQMASSEPPCVNKVSDWKLEILQNGLYLIYGQVAPNANYNDVAPFEVRLYKNKDMIQTLTNKSKIQNVGGTYELHVGDTIDLIFNSEHQVLKNNTYWGIILLANPQFISGGGGSGGGGSQLETAKEPCMAKFGPLPSKWQMASSEPPCVNKVSDWKLEILQNGLYLIYGQVAPNANYNDVAPFEVRLYKNKDMIQTLTNKSKIQNVGGTYELHVGDTIDLIFNSEHQVLKNNTYWGIILLANPQFIS
For B4, the EC50 (read off the curve) [8] was 0.02 nM.

B5: GITRLmut/anti-PD-1 mAb1 (antibody, part only; not given: mutant GITRL, constant regions, linkers, not shown: a dimerising Fc or GST)
heavy, part: QLQLQESGPGLVKPSETLSLTCTVSGGSISTSSYFWGWIRQPPGKGLEWIGSIYRSGSTYYNPSLKSRVTISVDTSKNQFSLKLSSVTAADTAVYYCARGITGDPGDYWGQGTLVTVSS
light, part: EIVLTQSPATLSLSPGERATLSCGASQSVSINFLAWYQQKPGLAPRLLIYEASSRATGIPDRFSGSGSGTDFTLTISRLEPEDFAVYYCQQYGSSPYTFGQGTKLEIK
Binder B5 has an EC50 (read off the curve) [9] of 0.6 nM and an EC50 (read off the curve) [10] of 0.4 nM.

B6: GITRLmut/anti-PD-1 mAb2 (antibody, part only; not given: mutant GITRL, constant regions, linkers, not shown: a dimerising Fc or GST)
heavy, part: QLQLQESGPGLVKPSETLSLTCTVSGGSISSSSYFWGWIRQPPGKGLEWIGSIYRSGSTYYNPSLKSRVTISVDTSKNQFSLKLSSVTAADTAVYYCARGITGDPGDYWGQGTLVTVSS
light, part: EIVLTQSPATLSLSPGERATLSCGASQSVPINFLAWYQQKPGLAPRLLIYEASSRHTGIPDRFSGSGSGTDFTLTISRLEPEDFAVYYCGQYGSSPYTFGQGTKLEIK
Work on B6 yielded an EC50 (read off the curve) [9] of 0.2 nM and an EC50 (read off the curve) [10] of 0.1 nM.
